Assays:
[1] = target: thrombin-specific peptide with the cleavage site
[2] = target: thrombin-specific peptide with the cleavage site; assay: single-particle plasmon sensing (dark-field scattering microscopy of gold nanorods); same sensor; standard deviation of the start time t0 of cleavage among particles against thrombin concentration, fitted with Poisson statistics of the waiting time for the first enzyme to bind to a particle; additional uncertainty of 20 s allowed
[3] = target: thrombin-specific peptide with the cleavage site; assay: single-particle plasmon sensing (dark-field scattering microscopy of gold nanorods); peptide held on gold nanorods on a coverslip in a flow cell; thrombin 1-300 nM injected at 5 uL/min in 50 mM Tris-HCl, 10 mM CaCl2, 150 mM NaCl, pH 8.4; rate constants of a three-stage kinetic model adjusted to match the plasmon-shift time traces

Sequence of thrombin-specific peptide with the cleavage site (peptide, as listed by the source): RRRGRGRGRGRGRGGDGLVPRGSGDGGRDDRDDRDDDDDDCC

Q: For active thrombin (enzyme), which peptide cleavage rate kb from the kinetic model matched to the plasmon-shift time traces [1] is on record?
A: The peptide cleavage rate kb from the kinetic model matched to the plasmon-shift time traces was 0.01 s^–1.

Q: And the kon [2]?
A: The kon was 100000 M⁻¹ s⁻¹.

Q: And the kon [3]?
A: Its kon is 200000 M⁻¹ s⁻¹.
